# From US12319739 (F STAR DELTA, dated 2025)
# Where a chain is given by its changes, count along the chain named.
# T1: cMSLN-His-Avi (cynomolgus, single biotin on the Avi tag in the biotinylated form)
# T1 construct: Monomeric; also called cyno MSLN-His-Avi; cMSLN-Avi-His
# T1 chain: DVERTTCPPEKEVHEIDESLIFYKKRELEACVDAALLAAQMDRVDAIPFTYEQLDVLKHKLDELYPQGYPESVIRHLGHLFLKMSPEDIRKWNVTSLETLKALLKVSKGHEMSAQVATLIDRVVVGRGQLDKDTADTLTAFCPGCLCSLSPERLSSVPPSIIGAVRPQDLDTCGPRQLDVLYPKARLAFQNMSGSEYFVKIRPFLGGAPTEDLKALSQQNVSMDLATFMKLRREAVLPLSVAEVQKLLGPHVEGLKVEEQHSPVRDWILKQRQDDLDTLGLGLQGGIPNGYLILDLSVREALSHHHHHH
# B1: FS22-172-003-AA/FS28-256-012 (bispecific antibody, human IgG1, kappa, L234A L235A, V domains shown)
# VH: EVQLLESGGGLVQPGGSLRLSCAASGFTFTHTYMSWVRQAPGKGLEWVSNISPTYSTTNYADSVKGRFTISRDNNKNTLYLQMNSLRAEDTAVYYCARYNAYHAALDYWGQGTLVTVSS
# VL: EIVLTQSPGTLSLSPGERATLSCRASQSVSSSYLAWYQQKPGQAPRLLIYGASSRATGIPDRFSGSGSGTDFTLTISRLEPEDFAVYYCQQSYYYPITFGQGTKVEIKR
# notes: IgG1 mAb^2 with LALA
# B2: FS22-172-003-AA/FS28-256-024 (bispecific antibody, human IgG1, kappa, L234A L235A, V domains shown)
# VH: B1 VH
# VL: B1 VL with S92A, Y93L, Y94G, I97H
# notes: IgG1 mAb^2 with LALA
# B3: FS22-172-003-AA/FS28-256-026 (bispecific antibody, human IgG1, kappa, L234A L235A, V domains shown)
# VH: B1 VH with H31Q, N75S, H103Q, A104I, A105G
# VL: B1 VL with S92A, Y93L, Y94G, I97H
# notes: IgG1 mAb^2 with LALA
# B4: FS22-172-003-AA/FS28-256-021 (bispecific antibody, human IgG1, kappa, L234A L235A, V domains shown)
# VH: B1 VH
# VL: B1 VL with S92H, Y93N, Y94Q, I97N
# notes: IgG1 mAb^2 with LALA
# B5: FS22-172-003-AA/FS28-256-273 (bispecific antibody, human IgG1, kappa, L234A L235A, V domains shown)
# VH: B1 VH with N50S
# VL: B1 VL with S92T, Y93V, Y94P, I97Y
# notes: IgG1 mAb^2 with LALA
# B6: FS22-172-003-AA/FS28-256-027 (bispecific antibody, human IgG1, kappa, L234A L235A, V domains shown)
# VH: B1 VH
# VL: B1 VL with S92T, Y93V, Y94P, I97Y
# notes: IgG1 mAb^2 with LALA
# B7: FS22-172-003-AA/FS28-256-272 (bispecific antibody, human IgG1, kappa, L234A L235A, V domains shown)
# VH: B1 VH with N50H
# VL: B1 VL with S92T, Y93V, Y94P, I97Y
# notes: IgG1 mAb^2 with LALA
# B8: FS22-172-003-AA/FS28-256-023 (bispecific antibody, human IgG1, kappa, L234A L235A, V domains shown)
# VH: B1 VH with H31Q, N75S, H103Q, A104I, A105G
# VL: B1 VL with S92H, Y93N, Y94Q, I97N
# notes: IgG1 mAb^2 with LALA
# B9: FS28-256-274 (in CD137 mAb^2 format) (bispecific antibody, V domains shown)
# VH: B1 VH with N50T
# VL: B1 VL with S92T, Y93V, Y94P, I97Y
# notes: Position 55 is IMGT numbering
# B10: 20H4.9 (antibody, V domains shown)
# VH: QVQLQQWGAGLLKPSETLSLTCAVYGGSFSGYYWSWIRQSPEKGLEWIGEINHGGYVTYNPSLESRVTISVDTSKNQFSLKLSSVTAADTAVYYCARDYGPGNYDWYFDLWGRGTLVTVSS
# VL: EIVLTQSPATLSLSPGERATLSCRASQSVSSYLAWYQQKPGQAPRLLIYDASNRATGIPARFSGSGSGTDFTLTISSLEPEDFAVYYCQQRSNWPPALTFGGGTKVEIKR
# Target: T2, hMSLN-His-Avi (human, UniProt Q13421 296-598, single biotin on the Avi tag in the biotinylated form)
# T2 construct: Monomeric; also called human MSLN-His-Avi; hMSLN-Avi-His
# T2 sequence (Q13421 other isoform, or with tags, fused parts or gaps): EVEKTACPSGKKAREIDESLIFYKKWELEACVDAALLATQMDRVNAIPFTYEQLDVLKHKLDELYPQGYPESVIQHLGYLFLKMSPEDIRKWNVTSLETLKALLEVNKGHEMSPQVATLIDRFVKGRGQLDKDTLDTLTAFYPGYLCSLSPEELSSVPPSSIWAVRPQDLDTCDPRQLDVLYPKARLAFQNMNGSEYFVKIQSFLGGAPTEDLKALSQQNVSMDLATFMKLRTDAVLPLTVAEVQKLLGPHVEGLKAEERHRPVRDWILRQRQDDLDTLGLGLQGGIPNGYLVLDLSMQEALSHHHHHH
# Experiment: SPR, mAb2 captured on Protein G, hMSLN-His-Avi in solution
# Experimental: (§1) The association time was 5 min and the dissociation time was 5 min. Running buffer was HBS-EP (GE Healthcare BR100188). Flow cells were regenerated by injecting Glycine-HCl pH2.1 at a flow rate of 30 μl/min for 15 seconds. The data was analysed as described in Example 7.1.
row,Binder,Kd [nM]
1,B1,809
2,B2,86.6
3,B3,57.9
4,B4,19.6
5,B5,7.4
6,B6,5.84
7,B7,7.6
8,B8,56.2

# Target: T2, hMSLN-His-Avi
# Experiment: SPR, hMSLN-His-Avi immobilised ~100 RU, mAb2 injected
# Experimental: (§2) 7.1 Binding of CD137/MSLN mAb2 to Human MSLN Under Avid Conditions—Antigen Capture Method Binding of all mAb^2 to MSLN immobilised on a BIAcore chip was tested to determine the binding affinity to human MSLN under avid conditions, where a high concentration of immobilised antigen is available to allow the antibody to bind avidly. […] The association time was 5 min and the dissociation time was 10 min. Running buffer was HBS-EP (GE Healthcare BR100188). Flow cells were regenerated by injecting Glycine-HCl pH1.5 at a flow rate of 30 μl/min for 30 seconds. Data were analysed by double referencing against a flow cell which was intentionally left blank (no antigen coating). The binding kinetics were fitted with a 1:1 Langmuir model to generate binding association (k_a) and dissociation (k_d) rates. Equilibrium binding constants (K_D) were calculated by dividing the dissociation rate by the association rate for each sample. Data analysis was performed with BiaEvaluation software version 3.2.
row,Binder,Kd [nM]
1,B1,3.12
2,B2,4.74
3,B3,3.19
4,B4,2.3
5,B5,6
6,B6,0.78
7,B7,10.7
8,B8,3.09

# Target: T2, hMSLN-His-Avi
# Experiment: ratio of SPR KDs
# Experimental: as §2, §1
row,Binder,KD ratio in solution/immobilised human MSLN
1,B1,259
2,B2,18
3,B3,18
4,B4,9
5,B5,1.2
6,B6,7
7,B7,0.7
8,B8,18

# Target: T2, hMSLN-His-Avi
# Experiment: SPR, hMSLN-His-Avi in solution
row,Binder,Kd [nM]
1,B5,7.4
2,B9,55.9
3,B7,7.6

# Target: T2, hMSLN-His-Avi
# Experiment: ratio of SPR KDs
# Remark: another data set of the same source
row,Binder,ratio of KD in solution/immobilised
1,B5,1.2
2,B9,2.8
3,B7,0.7

# Target: T3, endogenous cell surface human MSLN (human, UniProt Q13421 296-598)
# T3 construct: whole, on cells; The cell line is named under assay; also called cell-surface MSLN on NCI-H226, OVCAR-3 and AsPC-1 cells
# T3 sequence (Q13421 other isoform, or with tags, fused parts or gaps limits assumed): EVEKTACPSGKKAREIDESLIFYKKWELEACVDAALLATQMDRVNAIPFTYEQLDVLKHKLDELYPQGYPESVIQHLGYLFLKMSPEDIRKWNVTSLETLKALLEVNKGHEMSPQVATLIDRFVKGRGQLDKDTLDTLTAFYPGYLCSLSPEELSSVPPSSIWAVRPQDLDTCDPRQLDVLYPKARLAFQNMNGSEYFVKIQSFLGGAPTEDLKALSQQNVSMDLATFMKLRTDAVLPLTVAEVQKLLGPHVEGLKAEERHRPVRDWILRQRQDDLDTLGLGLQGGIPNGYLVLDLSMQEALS
# Experiment: flow cytometry, NCI-H226 cells + 20 nM soluble MSLN
# Experimental: (§3) To confirm binding to cell surface MSLN, mAb² listed in Table 9 were analysed for binding to endogenous cell surface MSLN on the human lung cancer cell line NCI-H226. In addition, and because MSLN can be found in blood in a shed soluble form, there is a risk that this circulating MSLN might affect exposure and ultimately potency of our mAb². To confirm that presence of soluble MSLN has minimal impact, additional binding experiments to NCI-H226 cells were performed in the presence of 20 nM soluble MSLN which is 10-20 times the level of soluble MSLN found to be of diagnostic value for defining malignant mesothelioma and lung cancer patients as MSLN positive (Cui et al., 2014). Briefly, NCI-H226 cells (ATCC CRL-5826) were harvested from T175 cell culture flasks using Accutase (Gibco, A11105-01).
# (§4) In both cases, cells were centrifuged at 1200 rpm for 3 min and resuspended in ice cold FACS buffer made up of DPBS (Life Technologies, 14190169) and 1% BSA (Sigma-Aldrich, A7906) at 2×10⁶ cells/ml and 50 μl per well was seeded in a 96-well V-bottom plate (Costar, 3894). All antibodies tested were diluted in FACS buffer in 120 μl at a concentration range of 0.01-200 nM (4-fold dilutions). The NCI-H226 cells were then centrifuged, supernatant removed and cells resuspended in 100 μl of each mAb dilution and incubated at 4° C. for 45 min. Cells were washed twice by centrifugation with 150 μl FACS buffer, resuspended in 100 μl containing goat anti-human IgG (γ-chain specific) F(ab')2 fragment-R-Phycoerythrin antibody (Sigma, P8047) diluted 1:1000 in FACS buffer and incubated at 4° C. for 45 min. The cells were washed once with 150 μl FACS buffer and then with 150 μl DPBS, resuspended in 150 μl DPBS containing DAPI (Biotium, 40043) at 1:10.000 and read on the BDCantoII or iQue (Intellicyt).
Binder,EC50 [nM],Emax (MFI)
B1,6.36,486000
B2,5.24,675000
B3,2.68,688000
B4,9.49,774000
B6,2.31,686000
B8,2.13,625000

# Target: T3, endogenous cell surface human MSLN
# Experiment: flow cytometry, NCI-H226 cells
# Experimental: as §3, §4
Binder,EC50 [nM],Emax (MFI)
B1,5.7,516000
B2,3.4,647000
B3,1.47,634000
B4,4.02,689000
B6,0.613,801000
B8,1.29,618000

# Target: T4, human CD137 on primary human CD8+ T cells (human, UniProt Q07011 24-255)
# T4 sequence (Q07011 24-255): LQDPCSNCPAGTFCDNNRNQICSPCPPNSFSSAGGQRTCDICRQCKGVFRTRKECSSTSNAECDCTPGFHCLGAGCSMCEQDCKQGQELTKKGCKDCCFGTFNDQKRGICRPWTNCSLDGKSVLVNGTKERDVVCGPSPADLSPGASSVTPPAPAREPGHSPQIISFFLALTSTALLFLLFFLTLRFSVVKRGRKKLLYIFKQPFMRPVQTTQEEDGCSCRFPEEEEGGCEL
# Experiment: cell-based or functional assay
Binder,"IL-2 release EC50, CD8+ T cell assay [nM]","fold change of IL-2 EC50 with 20 nM sMSLN against none, NCI-H226 co-culture [fold]"
B10,0.5,
B5,,> 4
B6,,6.6
B7,,> 4

# Target: T4, human CD137 on primary human CD8+ T …
# Experiment: cell-based or functional assay
# Remark: another data set of the same source
Binder,"Emax (IL-2 pg/ml), NCI-H226 co-culture, Donor A [pg/mL]","Emax (IL-2 pg/ml), NCI-H226 co-culture, Donor B [pg/mL]","IL-2 release EC50, NCI-H226 co-culture, Donor A [nM]","IL-2 release EC50, NCI-H226 co-culture, Donor B [nM]"
B1,1550,1100,1.56,1.67
B2,2120,1090,1.29,0.61
B3,2060,932,0.67,0.23
B4,1780,1000,0.06,0.04
B6,2110,,0.05,
B8,1960,975,0.64,0.23

# Target: T2, hMSLN-His-Avi
# Experiment: SPR, hMSLN-His-Avi immobilised
row,Binder,Kd [nM]
1,B5,6
2,B9,19.8
3,B7,10.7

# Target: T4, human CD137 on primary human CD8+ T …
# Experiment: cell-based or functional assay
# Remark: another data set of the same source
Binder,"IL-2 release EC50, NCI-H226 co-culture, +2 nM sMSLN [nM]","IL-2 release EC50, NCI-H226 co-culture, +20 nM sMSLN [nM]","IL-2 release EC50, NCI-H226 co-culture, no sMSLN [nM]"
B5,0.0616,0.366,0.0791
B7,0.13,0.684,0.122

# Target: T1, cMSLN-His-Avi
# Experiment: SPR, mAb2 captured on Protein G, cMSLN-His-Avi in solution
# Experimental: as §1
row,Binder,Kd [nM]
1,B1,712
2,B2,57.2
3,B3,33.1
4,B4,14.2
5,B6,1.06
6,B8,44.2
